Patent US9920133B2, “Anti-tissue factor monoclonal antibody” (NATIONAL CANCER CENTER, priority 2014, dated 2018)

What was measured:
[1] = biological target: T1, recombinant hTF antigen (Homo sapiens, UniProt P13726); test: Anticoagulant activity evaluation (prothrombin time); format: biochemical; settings: based on prolonged coagulation time ratio
T1 construct: made in house; host or cells: Escherichia coli
Experimental: The prothrombin time of each of the anti-hTF monoclonal antibodies (No. 1849 and No. 1859) was measured as described below.
3 μg of the antibody was added to 350 ng of a recombinant hTF antigen, and PBS was added to a total volume of 5 μl. An antigen-antibody reaction was performed for 15 minutes under shaking at 37° C. and 600 rpm. To the reaction solution, 50 μl of human […] subjected to anticoagulant treatment with 3.8% sodium citrate, and 100 μl of 25 mM CaCl2 were added, and at the same time, culturing was performed under shaking at 37° C. and 600 rpm. The period of time until a fibrin clot was formed (prothrombin time) was measured. The prolonged coagulation time ratio (prothrombin time ratio) of each antibody when the prothrombin time in a control using PBS in place of the reaction solution is defined as 1 are shown in Table 3 and FIG. 2.

[2] = test system: Pancreatic cancer cells BxPC3 that express TF in high amounts; test: Internalization assay (anti-hTF antibodies); format: cell-based, human; settings: 30 μg Alexa 647-labeled antibody, culturing for 3 hours, fluorescence microscope
Experimental: (§1) Each monoclonal antibody obtained as described above was subjected to the following internalization assay.
Pancreatic cancer cells BxPC3 that express TF in high amounts were seeded into a four-chamber Culture Slide (BD) at 5×10^4 cells/chamber, and cultured in RPMI 1640 medium at 37° C. under a 5% CO2 environment for 12 hours. The resultant was washed three times with PBS, and then 30 μg of antibody labeled with an Alexa 647 fluorescence labeling kit (Invitrogen) was diluted with 1 ml of RPMI 1640 medium and added to each chamber, followed by culturing for 3 hours. After 2 hours from the initiation of this culturing, Lysotracker® RED-DND99 (Invitrogen) was added to the culture solution to have a final concentration of 75 nM, followed by further culturing for 1 hour. Then, the resultant was washed three times with PBS. After that, immobilization was performed with 4% paraformaldehyde, and nuclear staining was performed with 4′,6-diamidino-2-phenylindole (DAPI), followed by mounting with Fluoromount-G® (Southern Biotech). Then, the cells were observed using a fluorescence microscope (Keyence).

[3] = test system: Mouse B16 melanoma cells and cells thereof that were forced to express TF; test: Internalization assay (anti-mTF antibody); format: cell-based; settings: mouse B16 melanoma cells and TF-forced-expression cells, 30 μg Alexa 647-labeled antibody, 3 hours
Experimental: as §1
Mouse B16 melanoma cells and cells thereof that were forced to express TF were seeded into a four-chamber Culture Slide (BD) at 5×10^4 cells/chamber, and cultured in RPMI 1640 medium at 37° C. under a 5% CO2 environment for 12 hours. The resultant was washed three times with PBS, and then 30 μg of antibody labeled with an Alexa 647 fluorescence labeling kit (Invitrogen) was diluted with 1 ml of RPMI 1640 medium and added to each chamber, followed by culturing for 3 hours. After 2 hours from the initiation of this culturing, Lysotracker® RED-DND99 (Invitrogen) was added to the culture solution to have a final concentration of 75 nM, followed by further culturing for 1 hour. Then, the resultant was washed three times with PBS. After that, immobilization was performed with 4% paraformaldehyde, and nuclear staining was performed with 4′,6-diamidino-2-phenylindole (DAPI), followed by mounting with Fluoromount-G® (Southern Biotech). Then, the cells were observed using a fluorescence microscope (Keyence).

[4] = Body weight in the antitumor effect confirmation test; format: in vivo, nude mice (BALBc nu/nu); settings: BxPC3 xenograft nude mice, 10 mg/kg tail vein on Day 0, 4, 8, until Day 30
Experimental: (§2) 1×10^7 cells/100 μL of human pancreatic cancer cells (BxPC3) were implanted subcutaneously into the backs of 4-week-old nude mice (BALBc nu/nu, female), and treatment was initiated when the tumor volume (calculated based on the tumor diameter) reached about 200 mm^3. The day of initiation of the treatment was defined as Day 0, and a drug was administered to the tail vein once on each of Day 0, Day 4, and Day 8 (administration three times in total). hTF-MMAE was used as the drug, and physiological saline was administered as a control (each group: N=7). The dose of the drug was 10 mg/kg per administration (antibody amount: about 200 μg/mouse). Thereafter, the tumor diameter and the body weight were measured twice a week until Day 30. The ratios of the tumor volume and the body weight to the tumor volume and the body weight at Day 0 are shown in FIG. 4 and FIG. 5, respectively.

[5] = test system: human pancreatic cancer cells (BxPC3) implanted subcutaneously; test: Antitumor effect confirmation test (tumor volume); format: in vivo, nude mice (BALBc nu/nu); settings: BxPC3 xenograft nude mice, 10 mg/kg tail vein on Day 0, 4, 8, until Day 30
Experimental: as §2

[6] = test system: Human pancreatic cancer cells (BxPC3); test: Cytocidal effect confirmation test; format: cell-based; settings: BxPC3, 72 hours after addition, compared to mTF-MMAE
Experimental: Human pancreatic cancer cells (BxPC3) were added to a 96-well plate at 3×10^3 cells/well, and cultured in RPMI medium containing 10% FCS, penicillin (100 U/ml), and streptomycin (100 μg/ml) hTF-MMAE was added to the wells at various drug concentrations, and cell survival rates 72 hours after the addition were calculated.
It should be noted that, as a comparative test, a similar test was performed using, in place of hTF-MMAE, mTF-MMAE obtained by binding MMAE, in the same manner as above, to a monoclonal antibody (mTF) against mouse TF not expressed in human cancer cells, and a cell survival rate was calculated. The ratio (%) of each cell survival rate, with the cell survival rate of a negative control (no addition of a drug sample) being defined as 100%, is shown in FIG. 3.

T1 sequence (P13726 with tags, fused parts or gaps): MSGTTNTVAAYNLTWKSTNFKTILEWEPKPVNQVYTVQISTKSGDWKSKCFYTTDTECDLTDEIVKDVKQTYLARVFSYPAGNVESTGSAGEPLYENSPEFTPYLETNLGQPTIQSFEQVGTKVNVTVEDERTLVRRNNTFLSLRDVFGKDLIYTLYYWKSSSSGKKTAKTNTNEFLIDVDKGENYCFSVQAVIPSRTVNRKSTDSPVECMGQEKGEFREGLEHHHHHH

B1: No. 1859: anti-human tissue factor monoclonal antibody, heavy/light chain variable regions SEQ ID NOS: 17 and 18 (antibody, V domains shown)
VH: EVMLVESGPGLVQPSQTLSLICTVSGFSLTDYSVHWVRQPPGKGLEWVGVMWSGGTTTFNSGLKSRLSISRDTSKSQVFLKMYSLRTEDTAVYYCTRERAGSPLNWFAYWGQGTLVTVSS
VL: DIVMTQSPASLSASLEEIVTITCQASQDIGNYLSWYQQKPGKSPHLLIHSSTSLADGVPSRFSGSRSGTQYSLKINRLQVEDTGVYYCLQHYSGSRTFGGGTNLELK
modifications: rat
In the case of B1, the anticoagulant activity [1] is reported as “extremely small” and the “ability to be internalized (labeling substance transferred into cells)” value [2] is reported as “had the ability to be internalized”.

B2: No. 1157: anti-mouse tissue factor monoclonal antibody, heavy/light chain variable regions SEQ ID NOS: 25 and 26 (antibody, V domains shown)
VH: MAEVMLVESGGGLVQPGRSLKLSCLASGFTFTDYGMNWIRQTPGKGLEWVASITVRNYIYYADTVKGRFTISRENAKNTLYLQMTSLTSEDTALYYCSRRTEGMDYWGQGVMVTVSS
VL: MTQSPSFLSASVGDRVTVTCKVSQNINGYLNWYQQKVGEAPKVLIYNTDNLQTDVPSRFSGSGSGTVFTLTISSLHPEDVATHFCLQHYSWPLTFGSGTQLEIKR
modifications: rat
In the case of B2, the “ability to be internalized (fluorescence-labeled antibody transferred into cells)” value [3] is reported as “had the ability to be internalized by a cell expressing mTF”.

B3: No. 1849: rat anti-human tissue factor monoclonal antibody, heavy/light chain variable regions SEQ ID NOS: 9 and 10 (antibody, V domains shown)
VH: EVQLVESGGGLVQSGRSLKLSCAASGFTFSDYNMAWIRQAPKKGLEWVAAIIYDGTRTYYRDSVRGRFTISRDNAKSTLYLQVDSLRSEDTATYYCATGDSYTNFAYWGQGTLVTVSS
VL: EIVLTQSPTTMAASPGEKVTLTCRASSSLSYMHWYQQRSGTSPKLWIYETSKLASGVPNRFSGSGSGTSFSLTIDSMETEDAATYYCQQGNSYPRTFGGGTKLELK
modifications: rat
For B3, the “ability to be internalized (labeling substance transferred into cells)” value [2] was “had the ability to be internalized”.

B4: hTF-MMAE: anti-hTF monoclonal antibody (No. 1849) having monomethyl auristatin E (MMAE) bound thereto, three to five MMAE molecules per antibody (conjugate)
VH: B3 VH
VL: B3 VL
modifications: non-natural residues
In the case of B4, the “body weight (ratio to Day 0)” value [4] is reported as “a reduction in body weight was not found”, the “antitumor effect (tumor volume ratio to Day 0)” value [5] is reported as “remarkably excellent antitumor effect” and the “cytocidal effect (cell survival rate)” value [6] is reported as “remarkably excellent cytocidal effect”.
